Results on two substances are retold here after patent publication US20180346588A1.

The target in test [1] is human mesothelin (MSLN) on the cell surface (human) (UniProt Q13421). Description: FACS on MSLN stable cell line (#2), left panels; negative control; sheet note: 1st Ab 1 µg (1st assay), 2nd Ab anti-human Fc antibody FITC.
Test [2] has the same target. Kind of test: FACS on MSLN stable cell line (#2), right panels; negative control; sheet note: 1st Ab 0.36 µg (2nd assay), 2nd Ab anti-human Fc antibody FITC.
For test [3] the target is unchanged. Kind of test: FACS on MiaPaCa-MSLN #2 cells, upper histogram and table; negative control.
Test [4] has the same target. Description: FACS on MSLN stable cell line (#2), left panels; sheet note: 1st Ab 1 µg (1st assay), 2nd Ab anti-human Fc antibody FITC.
Test [5] shares this target. Kind of test: FACS on MiaPaCa-MSLN #2 cells, upper histogram and table.
The target is the same in test [6]. Kind of test: FACS on MSLN stable cell line (#2), right panels; sheet note: 1st Ab 0.36 µg (2nd assay), 2nd Ab anti-human Fc antibody FITC.

Sequence of human mesothelin (MSLN) on the cell surface (human) (Q13421 other isoform, or with tags, fused parts or gaps limits assumed): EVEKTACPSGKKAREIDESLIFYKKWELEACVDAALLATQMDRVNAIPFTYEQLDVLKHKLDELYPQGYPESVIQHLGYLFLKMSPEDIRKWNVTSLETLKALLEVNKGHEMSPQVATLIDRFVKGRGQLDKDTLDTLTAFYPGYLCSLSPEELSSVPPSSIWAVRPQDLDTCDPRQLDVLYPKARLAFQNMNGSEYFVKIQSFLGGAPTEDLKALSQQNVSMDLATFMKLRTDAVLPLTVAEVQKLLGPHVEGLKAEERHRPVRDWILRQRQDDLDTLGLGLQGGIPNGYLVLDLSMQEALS

On to hIgG (antibody), for which the Mean, FL1-H in test [1] is 3.36; in test [2], 4.81. The Mean, FL2-H in test [3] turned out to be 8.6.

For the substance Morab (antibody), the Mean, FL1-H in test [4] is 515; in test [6] it was 263. Besides, in test [5], the Mean, FL2-H amounted to 3190.
